{"source": "patent EP4471063A1", "about": "“ANTIBODY AGAINST HER3, CONJUGATE AND USE THEREOF” (priority 2022, dated 2023)", "origin": "cited, not measured here", "key": {"[1]": {"details": "multicenter clinical studies"}, "[2]": {"details": "once every three weeks, five administrations, 0, 3, 10, 30 mg/kg"}}, "data": [{"substance": "Patritumab Deruxtecan", "values": [{"measurement": "body weight", "setting": "at all doses", "result": "no significant abnormality"}, {"measurement": "toxic target organs", "setting": "cynomolgus monkey, in vivo", "result": "thymus, bone marrow, and skin"}, {"measurement": "dose at which a decrease in reticulocytes, lymphocytes, and platelets was observed", "setting": "[2]", "result": "≥ 3", "unit": "mg/kg"}, {"measurement": "dose at which transferases increased", "setting": "[2]", "result": "≥ 10", "unit": "mg/kg"}, {"measurement": "thrombocytopenia as treatment emergent adverse event (TEAE)", "setting": "[1]", "result": 30, "unit": "%"}]}]}
